What was measured:
Test in all cases: Ligand Surface Binding Assay
ACVR2A-Halo = ACVR2A-Halo (human, UniProt P27037 20-513)
ACVR2B-Halo = ACVR2B-Halo (human, UniProt Q13705 19-512)
BMPR2-Halo = target: T1, BMPR2-Halo (human, UniProt Q13873 27-1038)
T1 sequence (looked up): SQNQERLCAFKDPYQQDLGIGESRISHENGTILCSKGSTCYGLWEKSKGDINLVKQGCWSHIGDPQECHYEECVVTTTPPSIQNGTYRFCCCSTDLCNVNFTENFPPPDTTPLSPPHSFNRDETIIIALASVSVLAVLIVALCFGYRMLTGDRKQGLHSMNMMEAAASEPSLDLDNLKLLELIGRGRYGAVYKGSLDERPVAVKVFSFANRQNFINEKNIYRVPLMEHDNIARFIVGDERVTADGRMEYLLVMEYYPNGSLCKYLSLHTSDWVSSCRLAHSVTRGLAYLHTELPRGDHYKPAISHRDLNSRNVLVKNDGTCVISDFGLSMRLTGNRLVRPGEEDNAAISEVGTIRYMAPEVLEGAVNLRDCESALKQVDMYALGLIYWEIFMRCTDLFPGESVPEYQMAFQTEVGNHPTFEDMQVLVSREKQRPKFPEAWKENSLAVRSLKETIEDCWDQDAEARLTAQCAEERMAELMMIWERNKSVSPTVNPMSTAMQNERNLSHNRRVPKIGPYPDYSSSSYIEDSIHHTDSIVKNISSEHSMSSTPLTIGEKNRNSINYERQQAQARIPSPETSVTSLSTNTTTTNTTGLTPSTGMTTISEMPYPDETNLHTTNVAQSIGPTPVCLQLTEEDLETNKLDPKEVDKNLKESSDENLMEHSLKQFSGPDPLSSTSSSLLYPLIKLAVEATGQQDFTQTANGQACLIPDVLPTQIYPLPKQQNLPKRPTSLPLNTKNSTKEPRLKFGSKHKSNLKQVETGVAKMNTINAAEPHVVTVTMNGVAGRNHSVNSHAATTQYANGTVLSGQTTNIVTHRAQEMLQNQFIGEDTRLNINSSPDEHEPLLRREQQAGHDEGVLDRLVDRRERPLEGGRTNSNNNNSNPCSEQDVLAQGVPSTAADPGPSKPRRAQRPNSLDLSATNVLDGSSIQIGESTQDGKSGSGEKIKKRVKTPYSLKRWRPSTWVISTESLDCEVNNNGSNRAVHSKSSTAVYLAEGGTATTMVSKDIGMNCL

Sequence of ACVR2A-Halo (P27037 20-513): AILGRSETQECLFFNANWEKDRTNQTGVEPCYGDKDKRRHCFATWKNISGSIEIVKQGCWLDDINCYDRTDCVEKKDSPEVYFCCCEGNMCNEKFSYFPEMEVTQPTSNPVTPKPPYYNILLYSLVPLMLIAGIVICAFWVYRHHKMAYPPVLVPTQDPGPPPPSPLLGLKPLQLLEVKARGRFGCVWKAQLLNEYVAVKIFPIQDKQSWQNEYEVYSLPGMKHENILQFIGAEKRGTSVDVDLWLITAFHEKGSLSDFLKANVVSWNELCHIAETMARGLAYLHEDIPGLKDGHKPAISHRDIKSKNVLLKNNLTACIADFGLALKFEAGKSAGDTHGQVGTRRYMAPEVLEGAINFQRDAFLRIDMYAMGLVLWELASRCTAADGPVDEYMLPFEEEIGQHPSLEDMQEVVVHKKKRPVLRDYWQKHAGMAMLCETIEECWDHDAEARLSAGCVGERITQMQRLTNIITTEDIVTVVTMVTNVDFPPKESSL
Sequence of ACVR2B-Halo (Q13705 19-512): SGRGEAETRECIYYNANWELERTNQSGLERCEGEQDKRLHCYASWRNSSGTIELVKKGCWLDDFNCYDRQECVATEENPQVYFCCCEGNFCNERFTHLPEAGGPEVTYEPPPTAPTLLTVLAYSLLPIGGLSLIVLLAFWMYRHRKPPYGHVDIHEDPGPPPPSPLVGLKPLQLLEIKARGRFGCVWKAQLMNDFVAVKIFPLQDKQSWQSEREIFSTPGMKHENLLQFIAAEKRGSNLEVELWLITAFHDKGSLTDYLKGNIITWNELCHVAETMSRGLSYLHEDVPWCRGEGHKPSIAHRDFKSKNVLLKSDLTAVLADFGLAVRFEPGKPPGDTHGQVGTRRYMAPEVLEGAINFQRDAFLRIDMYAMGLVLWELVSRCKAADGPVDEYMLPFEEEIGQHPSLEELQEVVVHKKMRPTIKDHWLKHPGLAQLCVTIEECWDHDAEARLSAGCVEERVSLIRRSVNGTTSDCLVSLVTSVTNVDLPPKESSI

B1: Activin A-Cy5 (ligand, UniProt P08476 311-426, looked up)
chain: GLECDGKVNICCKKQFFVSFKDIGWNDWIIAPSGYHANYCEGECPSHIAGTSGSSLSFHSTVINHYRMRGHSPFANLKSCCVPTKLRPMSMLYYDDGQNIIKKDIQNMIVEECGCS
modifications: Cy5 label (NHS-activated Cy5, protein:dye ratio 1:2 in the labelling reaction)
fold Activin A-Cy5 binding relative to untransfected cells (ACVR2A-Halo): ~29 fold | fold Activin A-Cy5 binding relative to untransfected cells (ACVR2B-Halo): ~84 fold | fold Activin A-Cy5 binding relative to untransfected cells (BMPR2-Halo): ~27 fold

From publication doi:10.1101/2022.03.04.482944 (bioRxiv, 2022)
